The text below walks through data of patent US20060002929A1.

By EC50 is commonly meant the concentration giving half of the maximal effect. High values mean weaker potency, low ones greater potency.

Assay [1] addresses Human Fc-OX40L (human) (UniProt P23510). The assay is described as follows: cell-based or functional assay.
Assay [2] has the same target. Description: BIAcore, immobilized hFc-OX40L. For orientation: SPR reads the build-up and loss of mass on a sensor chip optically.

Human Fc-OX40L (human), sequence (P23510 51-183 limits assumed): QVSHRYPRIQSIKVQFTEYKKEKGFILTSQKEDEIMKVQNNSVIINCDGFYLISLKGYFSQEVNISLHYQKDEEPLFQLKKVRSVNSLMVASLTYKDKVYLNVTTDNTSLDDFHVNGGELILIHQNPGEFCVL

B1: Ab G (antibody, part only; not given: light chain, part only)
heavy: MEFGLSWIFLAAILKGVQCEVQLVESGGGLVKPGGSLRLSCAASGFTFSNAWMSWVRQAPGKGLEWIGRIKSKTEGGTTDYGAPVKGRFTISRDDSKNTLYLQMNSLKTEDTAVYSCTTDFLWFGEFPFDYWGQGTLVTVSSASTKGPSVFPLAPCSRSTSESTAALGCLVKDYFPEPVTVSWNSGALTSGVHTFPAVLQSSGLYSLSSVVTVPSSNFGTQTYTCNVDHKPSNTKVDKTVERKCCVECPPCPAPPVAGPSVFLFPPKPKDTLMISRTPEVTCVVVDVSHEDPEVQFNWYVDGVEVHNAKTKPREEQFNSTFRVVSVLTVVHQDWLNGKEYKCKVSNKGLPAPIEKTISKTKGQPREPQVYTLPPSREEMTKNQVSLTCLVKGFYPSDIAVEWESNGQPENNYKTTPPMLDSDGSFFLYSKLTVDKSRWQQGNVFSCSVMHEALHNHYTQKSLSLSPGK
In the assay with Human Fc-OX40L (human) [1], B1 yielded a Costimulation Value (IC50), T cell proliferation (3H-thymidine) of 3.2 and an IL-2 Inhibition (IC50 [nM]) of 0.22 nM. The EC50 with Human Fc-OX40L (human) [2] worked out at 400 pM.
